Data published in patent publication US20140212423A1 (AbbVie / Abbott, published 2014).
Values belong to the binder of their own block, whether it stands above or below them.

What was measured:
rmTfR (119-763) = target: T1, rmTfR (119-763) (mouse, UniProt Q62351 119-763); assay: Biacore SPR, antibody captured via anti-human Fc, rmTfR (119-763) in solution
T1 construct: range 119-763; also called recombinant mouse transferrin receptor 119-763
Method: The BIACORE assay (Biacore, Inc, Piscataway, N.J.) was used to determine the affinity of antibodies or DVD-Ig™ with kinetic measurements of on-rate and off-rate constants. Binding of antibodies or DVD-Ig™ to a target antigen (for example, a purified recombinant target antigen) was determined by surface plasmon resonance-based measurements with a Biacore® 1000 or 3000 instrument (Biacore® AB, Uppsala, Sweden) using running HBS-EP (10 mM HEPES [pH 7.4], 150 mM NaCl, 3 mM EDTA, and 0.005% surfactant P20) at 25° C. All chemicals were obtained from Biacore® AB (Uppsala, Sweden) or otherwise from a different source as described in the text. For example, approximately 5000 RU of goat anti-human IgG, (Fcγ), fragment specific polyclonal antibody (Pierce Biotechnology Inc, Rockford, Ill.) diluted in 10 mM sodium acetate (pH 4.5) was directly immobilized across a CM5 research grade biosensor chip using a standard amine coupling kit according to manufacturer's instructions and procedures at 25 μg/ml. Unreacted moieties on the biosensor surface are blocked with ethanolamine. Modified carboxymethyl dextran surface in flowcell 2 and 4 is used as a reaction surface. Unmodified carboxymethyl dextran without goat anti-human IgG in flow cell 1 and 3 is used as the reference surface. For kinetic analysis, rate equations derived from the 1:1 Langmuir binding model were fitted simultaneously to association and dissociation phases of all eight injections (using global fit analysis) with the use of Biaevaluation 4.0.1 software. Purified antibodies or DVD-Ig™ were diluted in HEPES-buffered saline for capture across goat anti-human IgG specific reaction surfaces. […] The association and dissociation rate constants, kon (M⁻¹s⁻¹) and koff (s⁻¹) are determined under a continuous flow rate of 25 μl/min. […] The equilibrium dissociation constant (M) of the reaction between antibodies or DVD-Ig™s and the target antigen is then calculated from the kinetic rate constants by the following formula: KD=koff/kon. Binding is recorded as a function of time and kinetic rate constants are calculated.

[1] = target: T2, mouse Transferrin Receptor overexpressed on Hek 293 cells (mouse, UniProt Q62351 1-763); assay: TfR binding EC50 column of Table 8 (cell-based assay; repeats Table 7)
T2 construct: whole, on cells; also called Hek293/mTfR; 293/mTFR
T2 sequence (Q62351 whole entry): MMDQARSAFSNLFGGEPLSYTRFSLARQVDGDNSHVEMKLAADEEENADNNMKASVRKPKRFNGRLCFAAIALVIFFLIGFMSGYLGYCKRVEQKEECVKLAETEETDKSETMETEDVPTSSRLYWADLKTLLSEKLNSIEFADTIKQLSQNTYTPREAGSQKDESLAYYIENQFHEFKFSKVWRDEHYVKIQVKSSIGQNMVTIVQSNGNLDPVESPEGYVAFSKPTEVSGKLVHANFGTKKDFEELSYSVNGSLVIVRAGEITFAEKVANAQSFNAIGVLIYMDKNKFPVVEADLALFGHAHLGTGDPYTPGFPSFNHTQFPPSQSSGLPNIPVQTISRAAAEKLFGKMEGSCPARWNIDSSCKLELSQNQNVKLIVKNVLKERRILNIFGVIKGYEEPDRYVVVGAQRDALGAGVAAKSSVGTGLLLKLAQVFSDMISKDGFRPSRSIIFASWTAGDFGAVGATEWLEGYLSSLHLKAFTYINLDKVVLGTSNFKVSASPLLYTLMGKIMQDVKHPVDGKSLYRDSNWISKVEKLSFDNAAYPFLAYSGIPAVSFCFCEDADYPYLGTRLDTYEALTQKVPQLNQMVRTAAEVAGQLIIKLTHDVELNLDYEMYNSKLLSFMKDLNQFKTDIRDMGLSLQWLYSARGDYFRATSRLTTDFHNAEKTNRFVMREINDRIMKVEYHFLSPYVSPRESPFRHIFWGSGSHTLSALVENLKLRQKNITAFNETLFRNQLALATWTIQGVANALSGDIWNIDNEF
Method: (§1) Meso-scale Discovery (MSD) Electrochemiluminescesnce (ECL) assays to screen for antibodies or DVDs that bind a desired target antigen expressed on the cell surface were performed as follows: Hek 293 cells overexpressing mouse Transferin Receptor were added onto MSD 96-well plates (MSD Cat# L11 XB-3, lot#2290-EA) which were blocked using blocking buffer (30% FBS Serum (Hyclone) in PBS) at 37° C. for 1 hr. After incubating at RT for 30 min with mild agitation, plates were washed with DPBS 3 times and Abs/DVDs (10,000 ng/ml) were added. After incubating for 1 hr at RT, plates were washed 3 times with DPBS and 25 ul of Goat anti human Sulfo TAG (MSD Cat# R32AC-, Lot# W001162) at 1 μg/ml is added. Following a 1 h incubation at RT for 1 hr, plates are washed and MSD read buffer is added before reading on MSD SECTOR Imager 6000. EC50 values are obtained using Xlfit4 software package

[2] = target: T2, mouse Transferrin Receptor …; assay: mTFR binding cell-based assay
Method: as §1

[3] = target: T2, mouse Transferrin Receptor …; assay: cell-based MSD-ECL binding on Hek293 cells overexpressing mouse TfR
Method: as §1

rmTfR (123-763) [4] = target: T3, rmTfR (123-763) (mouse, UniProt Q62351 123-763); assay: Biacore SPR, DVD-Ig captured via anti-human Fc, rmTfR (123-763) in solution
T3 construct: range 123-763; also called recombinant mouse transferrin receptor 123-763
T3 sequence (Q62351 123-763): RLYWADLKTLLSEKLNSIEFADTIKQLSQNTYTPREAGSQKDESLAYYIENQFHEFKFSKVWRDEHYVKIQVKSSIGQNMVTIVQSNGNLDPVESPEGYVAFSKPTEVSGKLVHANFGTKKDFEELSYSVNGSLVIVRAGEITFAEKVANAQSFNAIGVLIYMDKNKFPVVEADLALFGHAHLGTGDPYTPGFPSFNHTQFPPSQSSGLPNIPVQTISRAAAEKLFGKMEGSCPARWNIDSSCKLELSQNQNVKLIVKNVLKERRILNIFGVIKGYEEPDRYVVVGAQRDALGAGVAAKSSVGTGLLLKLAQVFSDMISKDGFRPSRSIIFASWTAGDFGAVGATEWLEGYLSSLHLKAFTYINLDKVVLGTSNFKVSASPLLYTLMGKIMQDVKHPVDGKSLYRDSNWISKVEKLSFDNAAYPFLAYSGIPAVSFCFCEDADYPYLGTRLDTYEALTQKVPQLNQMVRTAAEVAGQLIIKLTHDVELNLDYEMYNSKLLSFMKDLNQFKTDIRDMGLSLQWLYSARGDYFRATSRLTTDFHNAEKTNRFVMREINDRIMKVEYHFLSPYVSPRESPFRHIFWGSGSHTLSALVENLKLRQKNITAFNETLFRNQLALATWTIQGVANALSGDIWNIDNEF
Method: (§2) The BIACORE assay (Biacore, Inc, Piscataway, N.J.) was used to determine the affinity of antibodies or DVD-Ig™ with kinetic measurements of on-rate and off-rate constants. Binding of antibodies or DVD-Ig™ to a target antigen (for example, a purified recombinant target antigen) was determined by surface plasmon resonance-based measurements with a Biacore® 1000 or 3000 instrument (Biacore® AB, Uppsala, Sweden) using running HBS-EP (10 mM HEPES [pH 7.4], 150 mM NaCl, 3 mM EDTA, and 0.005% surfactant P20) at 25° C. All chemicals were obtained from Biacore® AB (Uppsala, Sweden) or otherwise from a different source as described in the text. For example, approximately 5000 RU of goat anti-human IgG, (Fcγ), fragment specific polyclonal antibody (Pierce Biotechnology Inc, Rockford, Ill.) diluted in 10 mM sodium acetate (pH 4.5) was directly immobilized across a CM5 research grade biosensor chip using a standard amine coupling kit according to manufacturer's instructions and procedures at 25 μg/ml. Unreacted moieties on the biosensor surface are blocked with ethanolamine. Modified carboxymethyl dextran surface in flowcell 2 and 4 is used as a reaction surface. Unmodified carboxymethyl dextran without goat anti-human IgG in flow cell 1 and 3 is used as the reference surface. For kinetic analysis, rate equations derived from the 1:1 Langmuir binding model were fitted simultaneously to association and dissociation phases of all eight injections (using global fit analysis) with the use of Biaevaluation 4.0.1 software. Purified antibodies or DVD-Ig™ were diluted in HEPES-buffered saline for capture across goat anti-human IgG specific reaction surfaces. Antibodies or DVD-Ig™ to be captured as a ligand (25 μg/ml) were injected over reaction matrices at a flow rate of 5 μl/min. The association and dissociation rate constants, kon (M⁻¹s⁻¹) and koff (s⁻¹) are determined under a continuous flow rate of 25 μl/min. Rate constants are derived by making kinetic binding measurements at different antigen concentrations ranging from 10-200 nM. The equilibrium dissociation constant (M) of the reaction between antibodies or DVD-Ig™s and the target antigen is then calculated from the kinetic rate constants by the following formula: KD=koff/kon. Binding is recorded as a function of time and kinetic rate constants are calculated.

rmTfR (123-763) [5] = target: T3, rmTfR (123-763); assay: Biacore SPR, antibody captured via anti-human Fc, rmTfR (123-763) in solution
Method: as §2

[6] = target: T2, mouse Transferrin Receptor …; assay: MSD-ECL assay, column headed IC50 (values match the cell-based mTfR binding EC50 of Table 7)

T1 sequence (Q62351 119-763): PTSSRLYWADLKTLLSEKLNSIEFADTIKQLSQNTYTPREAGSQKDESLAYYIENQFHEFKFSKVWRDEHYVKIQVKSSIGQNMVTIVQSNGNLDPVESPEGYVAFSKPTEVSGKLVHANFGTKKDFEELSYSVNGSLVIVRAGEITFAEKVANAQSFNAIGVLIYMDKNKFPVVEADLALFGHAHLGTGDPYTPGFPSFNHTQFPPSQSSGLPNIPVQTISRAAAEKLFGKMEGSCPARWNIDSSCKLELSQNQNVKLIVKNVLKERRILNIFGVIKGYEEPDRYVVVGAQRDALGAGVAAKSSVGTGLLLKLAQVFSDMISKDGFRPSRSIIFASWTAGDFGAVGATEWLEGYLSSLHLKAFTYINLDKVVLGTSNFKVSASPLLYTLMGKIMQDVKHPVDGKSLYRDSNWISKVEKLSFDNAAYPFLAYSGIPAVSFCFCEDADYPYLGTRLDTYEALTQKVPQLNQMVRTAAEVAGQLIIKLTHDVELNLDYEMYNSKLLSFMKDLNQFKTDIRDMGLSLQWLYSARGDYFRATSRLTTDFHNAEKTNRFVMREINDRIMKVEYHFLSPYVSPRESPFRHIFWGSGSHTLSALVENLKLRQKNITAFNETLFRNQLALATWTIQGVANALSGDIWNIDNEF

- Kd (rmTfR (119-763)): 5 nM
- koff (rmTfR (119-763)): 0.000181 s⁻¹
- kon (rmTfR (119-763)): 39400 M⁻¹ s⁻¹
- EC50 [1]: 0.1 nM
- EC50 [2]: 0.12 nM
- EC50 [3]: 0.1 nM
B1: AB221 (antibody, V domains shown)
VH: EVQLVESGGGLVQPGNSLTLSCVASGFTFSNYGMHWIRQAPKKGLEWIAMIYYDSSKMNYADTVKGRFTISRDNSKNTLYLEMNSLRSEDTAMYYCAVPTSHYVVDVWGQGVSVTVSS
VL: DIQMTQSPASLSASLEEIVTITCQASQDIGNWLAWYQQKPGKSPQLLIYGATSLADGVPSRFSGSRSGTQFSLKISRVQVEDIGIYYCLQAYNTPWTFGGGTKLELKR
notes: the assays detect/capture with anti-human IgG reagents; constant regions not assigned; also called TfR(AB221); anti-mouse TfR(AB221) antibody

- EC50 [3]: 0.1 nM
- Kd (rmTfR (123-763) [4]): 1.3 nM
- koff (rmTfR (123-763) [4]): 4.06e-05 s⁻¹
- kon (rmTfR (123-763) [4]): 31300 M⁻¹ s⁻¹
B2: DVD2358 (bispecific antibody)
VH: EVQLVESGGGLVQPGGSLRLSCAASGFTFSNYGMHWIRQAPGKGLEWIAMIYYDSSKMNYADTVKGRFTISRDNAKNSLYLQMNSLRAEDTAVYYCAVPTSHYVVDVWGQGTTVTVSSASTKGPEVQLLESGGGLVQPGGSLRLSCAASGFTFSNYGMSWVRQAPGKGLEWVASIRSGGGRTYYSDNVKGRFTISRDNSKNTLYLQMNSLRAEDTAVYYCVRYDHYSGSSDYWGQGTLVTVSS
VL: AIQMTQSPSSLSASVGDRVTITCQASQDIGNWLAWYQQKPGKSPKLLIYGATSLADGVPSRFSGSRSGTDFTLTISSLQPEDFATYYCLQAYNTPWTFGGGTKVEIKRTVAAPDVVMTQSPLSLPVTPGEPASISCKSSQSLLDSDGKTYLNWLLQKPGQSPQRLIYLVSKLDSGVPDRFSGSGSGTDFTLKISRVEAEDVGVYYCWQGTHFPRTFGQGTKVEIKR
notes: DVD-Ig, outer AB402 (TfR), inner AB043 (APP), HG-short/LK-short; dual variable regions only; constant regions not assigned

- EC50 [3]: 0.15 nM
- Kd (rmTfR (123-763) [4]): 1.7 nM
- koff (rmTfR (123-763) [4]): 4.8e-05 s⁻¹
- kon (rmTfR (123-763) [4]): 28000 M⁻¹ s⁻¹
B3: DVD2360 (bispecific antibody)
VH: B2 VH
VL: EIVMTQSPATLSVSPGERATLSCQASQDIGNWLAWYQQKPGQSPRLLIYGATSLADGVPARFSGSRSGTEFTLTISSLQSEDFAVYYCLQAYNTPWTFGGGTKVEIKRTVAAPDVVMTQSPLSLPVTPGEPASISCKSSQSLLDSDGKTYLNWLLQKPGQSPQRLIYLVSKLDSGVPDRFSGSGSGTDFTLKISRVEAEDVGVYYCWQGTHFPRTFGQGTKVEIKR
notes: DVD-Ig, outer AB403 (TfR), inner AB043 (APP), HG-short/LK-short; dual variable regions only; constant regions not assigned

- EC50 [3]: 3.2 nM
- Kd (rmTfR (123-763) [4]): 78 nM
- koff (rmTfR (123-763) [4]): 0.000771 s⁻¹
- kon (rmTfR (123-763) [4]): 9870 M⁻¹ s⁻¹
B4: DVD2365 (bispecific antibody)
VH: QVQLVQSGAEVKKPGASVKVSCKASGFTFSNYGMHWIRQAPGQGLEWIAMIYYDSSKMNYADTVKGRFTITRDNSTNTLYMELSSLRSEDTAVYYCAVPTSHYVVDVWGQGTTVTVSSASTKGPEVQLLESGGGLVQPGGSLRLSCAASGFTFSNYGMSWVRQAPGKGLEWVASIRSGGGRTYYSDNVKGRFTISRDNSKNTLYLQMNSLRAEDTAVYYCVRYDHYSGSSDYWGQGTLVTVSS
VL: B3 VL
notes: DVD-Ig, outer AB405 (TfR), inner AB043 (APP), HG-short/LK-short; dual variable regions only; constant regions not assigned

- EC50 [2]: 0.09 nM
- Kd (rmTfR (123-763) [5]): 3.8 nM
- koff (rmTfR (123-763) [5]): 8.39e-05 s⁻¹
- kon (rmTfR (123-763) [5]): 22000 M⁻¹ s⁻¹
- EC50 [3]: 0.09 nM
B5: AB403 (antibody, V domains shown)
VH: EVQLVESGGGLVQPGGSLRLSCAASGFTFSNYGMHWIRQAPGKGLEWIAMIYYDSSKMNYADTVKGRFTISRDNAKNSLYLQMNSLRAEDTAVYYCAVPTSHYVVDVWGQGTTVTVSS
VL: EIVMTQSPATLSVSPGERATLSCQASQDIGNWLAWYQQKPGQSPRLLIYGATSLADGVPARFSGSRSGTEFTLTISSLQSEDFAVYYCLQAYNTPWTFGGGTKVEIKR
notes: humanized variant of AB221; constant regions not assigned; also called TfR(AB403)

- EC50 [1]: 13.6 nM
- EC50 [2]: 13.6 nM
- binding result (rmTfR (123-763) [5]): no binding (tested: antigen 10-200 nM)
- EC50 [3]: 13.6 nM
B6: AB405 (antibody, V domains shown)
VH: QVQLVQSGAEVKKPGASVKVSCKASGFTFSNYGMHWIRQAPGQGLEWIAMIYYDSSKMNYADTVKGRFTITRDNSTNTLYMELSSLRSEDTAVYYCAVPTSHYVVDVWGQGTTVTVSS
VL: B5 VL
notes: constant regions not assigned; also called TfR(AB405)

- EC50 [2]: 0.06 nM
- Kd (rmTfR (123-763) [5]): 3.7 nM
- koff (rmTfR (123-763) [5]): 6.12e-05 s⁻¹
- kon (rmTfR (123-763) [5]): 16400 M⁻¹ s⁻¹
- EC50 [3]: 0.06 nM
B7: AB402 (antibody, V domains shown)
VH: B5 VH
VL: AIQMTQSPSSLSASVGDRVTITCQASQDIGNWLAWYQQKPGKSPKLLIYGATSLADGVPSRFSGSRSGTDFTLTISSLQPEDFATYYCLQAYNTPWTFGGGTKVEIKR
notes: humanized variant of AB221; also called TfR(AB402)

- IC50 [6]: 0.1 nM
- EC50 [3]: 0.1 nM
B8: DVD2668 (bispecific antibody)
VH: EVQLVESGGGLVQPGNSLTLSCVASGFTFSNYGMHWIRQAPKKGLEWIAMIYYDSSKMNYADTVKGRFTISRDNSKNTLYLEMNSLRSEDTAMYYCAVPTSHYVVDVWGQGVSVTVSSASTKGPSVFPLAPEVQLLESGGGLVQPGGSLRLSCAASGFTFSNYGMSWVRQAPGKGLEWVASIRSGGGRTYYSDNVKGRFTISRDNSKNTLYLQMNSLRAEDTAVYYCVRYDHYSGSSDYWGQGTLVTVSS
VL: DIQMTQSPASLSASLEEIVTITCQASQDIGNWLAWYQQKPGKSPQLLIYGATSLADGVPSRFSGSRSGTQFSLKISRVQVEDIGIYYCLQAYNTPWTFGGGTKLELKRTVAAPDVVMTQSPLSLPVTPGEPASISCKSSQSLLDSDGKTYLNWLLQKPGQSPQRLIYLVSKLDSGVPDRFSGSGSGTDFTLKISRVEAEDVGVYYCWQGTHFPRTFGQGTKVEIKR
notes: DVD-Ig, outer AB221 (TfR), inner AB043 (APP/Abeta), HG-long/LK-short; dual variable regions only; constant regions not assigned; also called TfRLSAbeta DVD2668

- IC50 [6]: 1.2 nM
- EC50 [3]: 1.2 nM
B9: DVD2671 (bispecific antibody)
VH: EVQLLESGGGLVQPGGSLRLSCAASGFTFSNYGMSWVRQAPGKGLEWVASIRSGGGRTYYSDNVKGRFTISRDNSKNTLYLQMNSLRAEDTAVYYCVRYDHYSGSSDYWGQGTLVTVSSASTKGPSVFPLAPEVQLVESGGGLVQPGNSLTLSCVASGFTFSNYGMHWIRQAPKKGLEWIAMIYYDSSKMNYADTVKGRFTISRDNSKNTLYLEMNSLRSEDTAMYYCAVPTSHYVVDVWGQGVSVTVSS
VL: DVVMTQSPLSLPVTPGEPASISCKSSQSLLDSDGKTYLNWLLQKPGQSPQRLIYLVSKLDSGVPDRFSGSGSGTDFTLKISRVEAEDVGVYYCWQGTHFPRTFGQGTKVEIKRTVAAPDIQMTQSPASLSASLEEIVTITCQASQDIGNWLAWYQQKPGKSPQLLIYGATSLADGVPSRFSGSRSGTQFSLKISRVQVEDIGIYYCLQAYNTPWTFGGGTKLELK
notes: DVD-Ig; also called AbetaLSTfR DVD2671
